Consider four molecules from publication PMC5958125, “IgG-single-chain TRAIL fusion proteins for tumour therapy” (Scientific Reports, 2018).

What all share (assay): ELISA; TRAILR1-Fc or TRAILR2-Fc coated (200 ng/well in 0.1 M sodium carbonate buffer, pH 9.5), samples in 3% skim milk/PBS titrated 1:3 from 150 nM, 2 h room temperature, concentrations normalised to one scTRAIL unit, detected with anti-FLAG M2-HRP
Assay [1] deals with TRAILR2-Fc (UniProt O14763).
The next assay has as its target T1, TRAILR1-Fc (UniProt O00220 24-239).
T1 construct: TRAIL receptor 1 (TRAILR1); Probably the extracellular domain fused to an Fc
The conditions noted are these: both partners purified.

Assay [2] deals with T2, TRAILR2-Fc (UniProt O14763 56-210).
T2 construct: TRAIL receptor 2 (TRAILR2); Probably the extracellular domain fused to an Fc
The conditions noted are these: both partners purified.

T1 sequence (O00220 24-239): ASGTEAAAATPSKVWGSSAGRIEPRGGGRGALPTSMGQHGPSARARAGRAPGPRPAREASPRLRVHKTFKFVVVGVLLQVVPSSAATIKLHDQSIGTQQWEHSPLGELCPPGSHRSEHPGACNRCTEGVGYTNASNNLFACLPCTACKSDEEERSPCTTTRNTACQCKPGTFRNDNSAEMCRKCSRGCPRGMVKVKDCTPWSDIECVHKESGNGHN

As usually defined, the EC50 is the concentration needed to bring the measured effect to its halfway point. Read a high EC50 as a less potent agent. Molecule “HC-scTRAIL (fusion of scTRAIL to hu225 IgG heavy chains)” gave an EC50 with TRAILR2-Fc [1] of 0.8 nM.
On the same count and under the same terms, next, “LC-scTRAIL (fusion of scTRAIL to hu225 IgG light chains)”: 0.9 nM.
Same read-out and setting: the result for “LC/HC-scTRAIL (fusion of scTRAIL to both hu225 IgG chains)” reads 3.4 nM.

B1: Fc-scTRAIL-FAVSGAA (Fc fusion)
chain: AAHITGTRGRSNTLSSPNSKNEKALGRKINSWESSRSGHSFLSNLHLRNGELVIHEKGFYYIYSQTYFRFQEEIKENTKNDKQMVQYIYKYTSYPDPILLMKSARNSCWSKDAEYGLYSIYQGGIFELKENDRIFVSVTNEHLIDMDHEASFFGAFAVSGAAHITGTRGRSNTLSSPNSKNEKALGRKINSWESSRSGHSFLSNLHLRNGELVIHEKGFYYIYSQTYFRFQEEIKENTKNDKQMVQYIYKYTSYPDPILLMKSARNSCWSKDAEYGLYSIYQGGIFELKENDRIFVSVTNEHLIDMDHEASFFGAFAVSGAAHITGTRGRSNTLSSPNSKNEKALGRKINSWESSRSGHSFLSNLHLRNGELVIHEKGFYYIYSQTYFRFQEEIKENTKNDKQMVQYIYKYTSYPDPILLMKSARNSCWSKDAEYGLYSIYQGGIFELKENDRIFVSVTNEHLIDMDHEASFFGAFAVS
B1: the EC50 is 7.3 nM with TRAILR1-Fc and 1.1 nM with TRAILR2-Fc [2].
